Laboratory results: the Human Domainome abundance scans (Beltran et al. 2025)
± gives the uncertainty stated by the source.

B1: V(D)J recombination-activating protein 2, residues 415 to 491; numbered along this chain, P55895 (parent)
chain: YWITCCPTCDVDINTWVPFYSTELNKPAMIYCSHGDGHWVHAQCMDLAERTLIHLSAGSNKYYCNEHVEIARALHTP

Variants of: B1
Assay: abundance fitness (aPCA) (normalised: wild type 0, dead -1); higher = more abundant; growth selection in yeast, the domain comes from the species named
Conditions: Homo sapiens

YWITCCPTCDVDINTWVPFYSTELNKPAMIYCAHGDGHWVHAQCMDLAERTLIHLSAGSNKYYCNEHVEIARALHTP and YWITCCPTCDVDINTWVPFYSTELNKPAMIYCFHGDGHWVHAQCMDLAERTLIHLSAGSNKYYCNEHVEIARALHTP are within error of each other in abundance fitness: 0.069 ± 0.041 for the first, -0.017 ± 0.061 for the second.

YWITCCPTCDVDINTWVPFYSTELNKPAMIYCSHGDGHWVHAQCMDLAERTLIHLSWGSNKYYCNEHVEIARALHTP and YWITCCPTCDVDINTWVSFYSTELNKPAMIYCSHGDGHWVHAQCMDLAERTLIHLSAGSNKYYCNEHVEIARALHTP are within error of each other in abundance fitness: -0.276 ± 0.11 for the first, -0.344 ± 0.17 for the second.

Compared with YWITCCPTCDVDINTWVPFYSTELNKPAMIYCSHGDGHDVHAQCMDLAERTLIHLSAGSNKYYCNEHVEIARALHTP, YWITCCPTCDVDINTWVPFYSTELNKPAMIYCSHGDGHWVHAQSMDLAERTLIHLSAGSNKYYCNEHVEIARALHTP is lower in abundance fitness: -0.536 ± 0.093 for the first, -0.998 ± 0.12 for the second.

YWITCCPTCDVDINTWVPFYSTELNKPAMIYCSHGDGHWVHAQCMDLAERTPIHLSAGSNKYYCNEHVEIARALHTP and YWITCCPTCDVDINTWVPFYSTELNKPAMIYCSHGDGHWVHAQCMDLAERTHIHLSAGSNKYYCNEHVEIARALHTP are within error of each other in abundance fitness: -0.423 ± 0.083 for the first, -0.597 ± 0.42 for the second.

YWITCCPTCDVDINTWVPFYSTELNKPAMIYCSHGDGHWVHAQCMDLAERTSIHLSAGSNKYYCNEHVEIARALHTP and YWITCCPTCDVDINTWVPFYSTELNKPAMIYCSHGDGHWVHAQCMDLAERTLIHLSAGSNKYYCNEHVEIACALHTP are within error of each other in abundance fitness: -0.262 ± 0.07 for the first, -0.143 ± 0.16 for the second.

YWITCCPTCDVDINTWVPFYSTELNKPAMIYCSHGDGHWVHAQCMDLAERTLIHLSAGSNKYYCNEHVEIAPALHTP and YWITCCPTCDVDINTWVPFYSTELNKPAMIYCSHGDGHWVHAQCMDLAERTLIHLSAGSNKYYCNEHVEIARALHRP are within error of each other in abundance fitness: 0.01 ± 0.1 for the first, -0.091 ± 0.073 for the second.

YWITCCPTCDVDINTWVPFYSTELNKPAMIYCSHGDGHWRHAQCMDLAERTLIHLSAGSNKYYCNEHVEIARALHTP and YWITCCPTCDVDINTWVPFYSTELNKPAMIYCSHGDGHWYHAQCMDLAERTLIHLSAGSNKYYCNEHVEIARALHTP are within error of each other in abundance fitness: -0.65 ± 0.1 for the first, -0.85 ± 0.32 for the second.

YWITCCPTCDVDINTWVPFYSTELNKPAMIYCSHGDGHWVHAQCMDCAERTLIHLSAGSNKYYCNEHVEIARALHTP and YWITCCPTCDVDINTWLPFYSTELNKPAMIYCSHGDGHWVHAQCMDLAERTLIHLSAGSNKYYCNEHVEIARALHTP are within error of each other in abundance fitness: -0.081 ± 0.08 for the first, -0.056 ± 0.11 for the second.

YWITCCPTCDVDINTWEPFYSTELNKPAMIYCSHGDGHWVHAQCMDLAERTLIHLSAGSNKYYCNEHVEIARALHTP and YWITCCPTCDVDINTWVPFYSTELNKPCMIYCSHGDGHWVHAQCMDLAERTLIHLSAGSNKYYCNEHVEIARALHTP are within error of each other in abundance fitness: 0.046 ± 0.33 for the first, -0.117 ± 0.2 for the second.

YWITCCPTCDVDINTWVPFYSTELNKPWMIYCSHGDGHWVHAQCMDLAERTLIHLSAGSNKYYCNEHVEIARALHTP and YWITCCPTCDVDINTWVPFYSTELNKPFMIYCSHGDGHWVHAQCMDLAERTLIHLSAGSNKYYCNEHVEIARALHTP are within error of each other in abundance fitness: -0.116 ± 0.19 for the first, -0.183 ± 0.2 for the second.

Compared with YWITCCPTCDVDINTWVPFYSTELNKPGMIYCSHGDGHWVHAQCMDLAERTLIHLSAGSNKYYCNEHVEIARALHTP, YWITCCPTCDVDINTWVPFYSTELNKPAMIYCSHGDGHWVHAQCMDLAERTLYHLSAGSNKYYCNEHVEIARALHTP is higher in abundance fitness: -0.775 ± 0.27 for the first, -0.133 ± 0.1 for the second.

YWITCCPTCDVDINTWVPFYSTELNKPAMIYCSHGDGHWVHAQCMDLAERTLIHLSAISNKYYCNEHVEIARALHTP and YWITCCPTCDVDINTWVPFYSTELNKPAMIYCSHGDGHWVHAQCMDLAERTLIHLSAWSNKYYCNEHVEIARALHTP are within error of each other in abundance fitness: -0.003 ± 0.39 for the first, -0.06 ± 0.092 for the second.

First: YWITCCPTCDVDINTWVPFYSTELNKPAMIYCSHGDGHWVHAQCMDLAERTLIHLSACSNKYYCNEHVEIARALHTP
Second: YWITCCPTCDVDINTQVPFYSTELNKPAMIYCSHGDGHWVHAQCMDLAERTLIHLSAGSNKYYCNEHVEIARALHTP
The abundance fitness of the first is higher: -0.061 ± 0.13 for the first, -0.916 ± 0.43 for the second.

YWITCCPTCDVDITTWVPFYSTELNKPAMIYCSHGDGHWVHAQCMDLAERTLIHLSAGSNKYYCNEHVEIARALHTP and YWITCCPTCDVDIPTWVPFYSTELNKPAMIYCSHGDGHWVHAQCMDLAERTLIHLSAGSNKYYCNEHVEIARALHTP are within error of each other in abundance fitness: 0.039 ± 0.16 for the first, -0.346 ± 0.49 for the second.

YWITCCPTCDVDINTWVPFYSTELNKPAMIYCSHGDGHWVHAQCMDLAEATLIHLSAGSNKYYCNEHVEIARALHTP and YWITCCPTCDVDINTWVPFYSTELNKPAMIYCSHGDGHWVHAQCMDLAEITLIHLSAGSNKYYCNEHVEIARALHTP are within error of each other in abundance fitness: 0.094 ± 0.066 for the first, 0.067 ± 0.11 for the second.

YWITCCPTCDVDINTWVPFYSTELNKPAMIYCSHGDGHWVHAQCMDLAERTLIHLSAGSNKAYCNEHVEIARALHTP and YWITCCPTCDVDINTWVPFYSTELNKPAMIYCSHGDGHWVHAQCMDLAERTLIHLSAGSNKVYCNEHVEIARALHTP are within error of each other in abundance fitness: -0.328 ± 0.08 for the first, -0.342 ± 0.09 for the second.

Going from YWITCCPTCDVDINTWVPFYSTELNKPAMIYCSHGDGHWVHAQCMDLAERTLIHLSAGSNKRYCNEHVEIARALHTP to YWITCCPTCDVDINTWVPFYSTELNKPAMIYCSHGDGHWVHAQCMDLAERTLIHLSAGSNKYYWNEHVEIARALHTP, the abundance fitness falls from -0.561 ± 0.083 to -0.901 ± 0.11.

YWITCCPTCDVDINTWVPFYSTELNKPAMIYCSHGDGHWVHAQCMDLAERTLIHLSAGSNKYYQNEHVEIARALHTP showed an abundance fitness of -0.768 ± 0.23.
